Measured values published in patent US20110212476A1.

Target: Gαi1 R178M/A326S (human)
Assay: cell-based or functional assay

Chain of Gαi1 R178M/A326S (human) (B2RSH2 2-354 R178M/A326S): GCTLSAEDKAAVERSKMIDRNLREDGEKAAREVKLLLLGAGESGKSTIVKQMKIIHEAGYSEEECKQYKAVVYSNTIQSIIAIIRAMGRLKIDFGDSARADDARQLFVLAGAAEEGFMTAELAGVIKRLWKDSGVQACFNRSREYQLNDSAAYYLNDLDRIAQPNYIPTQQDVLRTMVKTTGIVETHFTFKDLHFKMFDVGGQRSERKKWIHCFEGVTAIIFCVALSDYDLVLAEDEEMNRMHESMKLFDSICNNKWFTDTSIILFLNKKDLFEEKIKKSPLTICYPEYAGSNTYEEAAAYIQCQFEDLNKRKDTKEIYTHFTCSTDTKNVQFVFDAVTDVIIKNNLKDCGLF

B1: RGS21 (wild type RGS domain) (protein)
chain: NMDTLLANQAGLDAFRIFLKSEFSEENVEFWLACEDFKKTKNADKIASKAKMIYSEFIEADAPKEINIDFGTRDLISKNIAEPTLKCFDEAQKLIYCLMAKDSFPRFLKSEIYKKLV
- stimulation of GTPase activity: 8.8 fold
